According to publication PMC11079029, “Intramolecular autoinhibition regulates the selectivity of PRPF40A tandem WW domains for proline-rich motifs” (Nature Communications, 2024):

Test system: GFP-tagged PRPF40A-Nter-MUT
Test: SILAC GFP-immunoprecipitation with quantitative mass spectrometry, mutant construct
Type: binding, human (Hela cells)
Settings: quantitative MS, Hela cells, protein by gene name
Method: The PRPF40A N-terminal region (isoform 2, residues 1-221) was PCR-amplified from RPE1 cDNA (ATCC, Cat# CRL-4000) cDNA. The sequence was amplified in two fragments and both fragments were combined by overhang. All PCRs were carried out using Q5 Polymerase (NEB) according to manufacturer’s protocol. The resulting PRPF40A N-terminal region was cloned into a GFP-expressing pcDNA5 vector (see pcDNA5 GFP vector in ref. [28]) using Q5 Site-Directed Mutagenesis Kit (NEB). Nter-MUT, containing the PPVP/PALPP motifs changed to AAAA/AAAAA, was obtained by mutating the N-ter-WW12-containing plasmid with Q5 site-directed mutagenesis. Plasmids were transformed into DH5alpha chemically competent cells. After culturing, DNA isolation was performed with either ZymoPURE Plasmid Miniprep Kit (Zymo Research) or QIAGEN Plasmid Plus Midi Kit (Qiagen). The sequence was confirmed by Sanger Sequencing (GATC Eurofins). All used oligonucleotides are shown in Supplementary Table 6.
Hela cells (ATCC, Cat# CCL-2, RRID:CVCL_0030) were cultured in DMEM SILAC medium (Thermo Fisher) supplemented with 10% filtered FBS (Sigma-Aldrich) and 1% penicillin-streptomycin (Thermo-Fisher). The SILAC medium contains either light (Arg0, Lys0), medium (Arg6, Lys4) or heavy (Arg10, Lys8) isotopes (Cambridge Isotopes Laboratories). Hela cells were cultivated for 14 days in SILAC medium to assure sufficient isotope incorporation. For transfection, 7 × 10^6 Hela cells were seeded in a 15 cm culture dish in 20 ml of respective SILAC medium and grown for 24 h. The cells were then transfected with 20 µg of plasmids expressing either GFP (Control), GFP-tagged N-ext-WW12 or GFP-tagged-N-ext-WW12-MUT utilizing 64 µl FuGENE (Promega) (ratio 1:3.2), according to manufacturer’s protocol.
24 h post-transfection, cells were washed twice in ice-cold PBS and harvested in 1 ml mRIPA buffer (50 mM Tris, 150 mM NaCl, 1 mM EDTA, 1% NP-40, 0.1% Na-deoxycholate), supplemented with 2 µl Turbo-DNase (Thermo Fisher) and 3 µl protease-inhibitor cocktail cOmplete (Sigma-Aldrich). Cell lysates were cleared by centrifugation at 16,000 × g, 4 °C, 15 min and concentration was measured using Pierce BCA Protein Assay kit (Thermo Scientific). The expressed constructs were pulled down by incubating 2.5 mg of lysate with 20 μl GFP-nanobody agarose beads (ChromoTek, GTA-20) for 1 h at 4 °C under constant agitation. Subsequently, beads were washed three times with mRIPA buffer without supplements, then eluted in 1X NuPAGE LDS sample buffer (Thermo Scientific). To detach the proteins from the beads, the eluate was heated to 70 °C for 10 min To evaluate the success of the immunoprecipitation, input (1%) and IP samples were analyzed on a NuPAGE 4–12% Bis-Tris-Acrylamide gel (Thermo Fisher) using NuPAGE MOPS SDS running buffer (Thermo Fisher). Proteins were stained using Sypro Ruby protein gel stain (Thermo Fisher) according to manufacturer’s protocol.
The eluted proteins of three SILAC states (light, medium, heavy) were combined. The proteins were then reduced in DTT, alkylated in iodoacetamide, and purified using the SP3 paramagnetic bead approach. This was followed by overnight enzymatic digestion using trypsin (1 µg per sample) in 50 mM ammonium bicarbonate at 37 °C. The peptide solution was then purified by solid phase extraction in C18 StageTips[99].
Peptides were separated by online reverse phase liquid chromatography using the EASY-nLC 1000 system (Thermo Scientific) in a 30-cm analytical column (inner diameter: 75 μm; heated at 50 °C) packed in-house with ReproSil-Pur 120 C18-AQ 1.9-μm beads (Dr. Maisch GmbH). The gradient separation was performed through a 105-min non-linear gradient of 1.6–32% acetonitrile with 0.1% formic acid at a nanoflow rate of 225 nl/min. The eluted peptides were sprayed directly by electrospray ionization into a Q Exactive Plus Orbitrap mass spectrometer (Thermo Scientific). […]

Molecule	Immunoprecipitation enrichment MUT vs WT, log2 FC
SF3B2 (protein, UniProt Q13435 1-895, looked up) Splicing factor 3B subunit 2: MATEHPEPPKAELQLPPPPPPGHYGAWAAQELQAKLAEIGAPIQGNREELVERLQSYTRQTGIVLNRPVLRGEDGDKAAPPPMSAQLPGIPMPPPPLGLPPLQPPPPPPPPPPGLGLGFPMAHPPNLGPPPPLRVGEPVALSEEERLKLAQQQAALLMQQEERAKQQGDHSLKEHELLEQQKRAAVLLEQERQQEIAKMGTPVPRPPQDMGQIGVRTPLGPRVAAPVGPVGPTPTVLPMGAPVPRPRGPPPPPGDENREMDDPSVGPKIPQALEKILQLKESRQEEMNSQQEEEEMETDARSSLGQSASETEEDTVSVSKKEKNRKRRNRKKKKKPQRVRGVSSESSGDREKDSTRSRGSDSPAADVEIEYVTEEPEIYEPNFIFFKRIFEAFKLTDDVKKEKEKEPEKLDKLENSAAPKKKGFEEEHKDSDDDSSDDEQEKKPEAPKLSKKKLRRMNRFTVAELKQLVARPDVVEMHDVTAQDPKLLVHLKATRNSVPVPRHWCFKRKYLQGKRGIEKPPFELPDFIKRTGIQEMREALQEKEEQKTMKSKMREKVRPKMGKIDIDYQKLHDAFFKWQTKPKLTIHGDLYYEGKEFETRLKEKKPGDLSDELRISLGMPVGPNAHKVPPPWLIAMQRYGPPPSYPNLKIPGLNSPIPESCSFGYHAGGWGKPPVDETGKPLYGDVFGTNAAEFQTKTEEEEIDRTPWGELEPSDEESSEEEEEEESDEDKPDETGFITPADSGLITPGGFSSVPAGMETPELIELRKKKIEEAMDGSETPQLFTVLPEKRTATVGGAMMGSTHIYDMSTVMSRKGPAPELQGVEVALAPEELELDPMAMTQKYEEHVREQQAQVEKEDFSDMVAEHAAKQKQKKRKAQPQDSRGGSKKYKEFKF	0.8966
SF3B3 (protein, UniProt Q15393 1-1217, looked up) Splicing factor 3B subunit 3: MFLYNLTLQRATGISFAIHGNFSGTKQQEIVVSRGKILELLRPDPNTGKVHTLLTVEVFGVIRSLMAFRLTGGTKDYIVVGSDSGRIVILEYQPSKNMFEKIHQETFGKSGCRRIVPGQFLAVDPKGRAVMISAIEKQKLVYILNRDAAARLTISSPLEAHKANTLVYHVVGVDVGFENPMFACLEMDYEEADNDPTGEAAANTQQTLTFYELDLGLNHVVRKYSEPLEEHGNFLITVPGGSDGPSGVLICSENYITYKNFGDQPDIRCPIPRRRNDLDDPERGMIFVCSATHKTKSMFFFLAQTEQGDIFKITLETDEDMVTEIRLKYFDTVPVAAAMCVLKTGFLFVASEFGNHYLYQIAHLGDDDEEPEFSSAMPLEEGDTFFFQPRPLKNLVLVDELDSLSPILFCQIADLANEDTPQLYVACGRGPRSSLRVLRHGLEVSEMAVSELPGNPNAVWTVRRHIEDEFDAYIIVSFVNATLVLSIGETVEEVTDSGFLGTTPTLSCSLLGDDALVQVYPDGIRHIRADKRVNEWKTPGKKTIVKCAVNQRQVVIALTGGELVYFEMDPSGQLNEYTERKEMSADVVCMSLANVPPGEQRSRFLAVGLVDNTVRIISLDPSDCLQPLSMQALPAQPESLCIVEMGGTEKQDELGERGSIGFLYLNIGLQNGVLLRTVLDPVTGDLSDTRTRYLGSRPVKLFRVRMQGQEAVLAMSSRSWLSYSYQSRFHLTPLSYETLEFASGFASEQCPEGIVAISTNTLRILALEKLGAVFNQVAFPLQYTPRKFVIHPESNNLIIIETDHNAYTEATKAQRKQQMAEEMVEAAGEDERELAAEMAAAFLNENLPESIFGAPKAGNGQWASVIRVMNPIQGNTLDLVQLEQNEAAFSVAVCRFSNTGEDWYVLVGVAKDLILNPRSVAGGFVYTYKLVNNGEKLEFLHKTPVEEVPAAIAPFQGRVLIGVGKLLRVYDLGKKKLLRKCENKHIANYISGIQTIGHRVIVSDVQESFIWVRYKRNENQLIIFADDTYPRWVTTASLLDYDTVAGADKFGNICVVRLPPNTNDEVDEDPTGNKALWDRGLLNGASQKAEVIMNYHVGETVLSLQKTTLIPGGSESLVYTTLSGGIGILVPFTSHEDHDFFQHVEMHLRSEHPPLCGRDHLSFRSYYFPVKNVIDGDLCEQFNSMEPNKQKNVSEELDRTPPEVSKKLEDIRTRYAF	0.8966
